Results on 13 molecules are retold here after patent US20250136686A1 (GUANGDONG KEGUANDA PHARMACEUTICAL TECHNOLOGY, published 2025).

Where a chain is given by its changes, count along the chain named. Where only a bound is given, the exact number is not on record here.

Sequences and labels used below:
B1: humanized antibody VH4-VL2 (antibody, V domains shown)
VH: EVQLVQSGAEVKKPGASVKVSCKASGFTLTEYTIHWVKQAPGQGLEWIGWFYPGSGGIKYNEKFQDRVTLTADESSSTVYMELSRLRSDDTAVYFCARHAFYRNYEYFDVWGTGTMVTVSS
VL: DIVMTQAPLSLPVTPGTPASISCRSSKSLLHSNGITYLYWYLQKPGQSPQLLIYQMSNLASGVPDRFSSSGSGTDFTLKISRVEAEDVGVYYCAQNLELPLTFGAGTKLEIK
notes: IgG1, kappa; tested as culture supernatant; also called VH-HM4 / VL-HM2
B2: humanized antibody VH3-VL3 (antibody, V domains shown)
VH: B1 VH with K38R, E74T, S76I, A92V
VL: B1 VL with L9F, L11S, P15L, L42Q, K44R, Q50R
notes: IgG1, kappa; tested as culture supernatant; also called VH-HM3 / VL-HM3
B3: humanized antibody VH4-VL3 (antibody, V domains shown)
VH: B1 VH
VL: B1 VL with L9F, L11S, P15L, L42Q, K44R, Q50R
notes: IgG1, kappa; tested as culture supernatant; also called VH-HM4 / VL-HM3
B4: humanized antibody VH2-VL3 (antibody, V domains shown)
VH: B1 VH with K38R, S76A, R85S, D89E
VL: B1 VL with L9F, L11S, P15L, L42Q, K44R, Q50R
notes: IgG1, kappa; tested as culture supernatant; also called VH-HM2 / VL-HM3
B5: humanized antibody VH1-VL3 (antibody, V domains shown)
VH: B1 VH with K38R, S76I
VL: B1 VL with L9F, L11S, P15L, L42Q, K44R, Q50R
notes: IgG1, kappa; tested as culture supernatant; also called VH-HM1 / VL-HM3
B6: humanized antibody VH4-VL1 (antibody, V domains shown)
VH: B1 VH
VL: B1 VL with L9F
notes: IgG1, kappa; tested as culture supernatant; also called VH-HM4 / VL-HM1
B7: humanized antibody VH2-VL1 (antibody, V domains shown)
VH: B1 VH with K38R, S76A, R85S, D89E
VL: B1 VL with L9F
notes: IgG1, kappa; tested as culture supernatant; also called VH-HM2 / VL-HM1
B8: humanized antibody VH2-VL2 (antibody, V domains shown)
VH: B1 VH with K38R, S76A, R85S, D89E
VL: B1 VL
notes: IgG1, kappa; tested as culture supernatant; also called VH-HM2 / VL-HM2
B9: 19-A11-H3-B11-VH3VL2 humanized antibody (hu.CA4) (antibody, V domains shown)
VH: B1 VH with K38R, E74T, S76I, A92V
VL: B1 VL
B10: humanized antibody VH1-VL1 (hu.CA1) (antibody, V domains shown)
VH: B1 VH with K38R, S76I
VL: B1 VL with L9F
B11: humanized antibody VH1-VL2 (hu.CA2) (antibody, V domains shown)
VH: B1 VH with K38R, S76I
VL: B1 VL
B12: humanized antibody VH3-VL1 (hu.CA3) (antibody, V domains shown)
VH: B1 VH with K38R, E74T, S76I, A92V
VL: B1 VL with L9F
B13: 19-A11-H3-B11 chimeric antibody (CA1) (antibody, V domains shown)
VH: EVQLQQSGAELVRPGASVKLSCKASGFTLTEYTIHWVKQRSGQGLEWIGWFYPGSGGIKYNEKFKDKATLTADESSSTVYMELSRLTSEDSAVYFCARHAFYRNYEYFDVWGTGTTVTVSS
VL: B1 VL with P8A, L9F, L11N, P15L, P18S, K79R, I111L

The first assay deals with T1, CD101 (human, UniProt Q93033 21-1021).
T1 construct: whole, on cells; The Jurkat line was made with another lentivirus (PSE5799, human CD101); also called human CD101; 293F-CD101
T1 sequence (looked up): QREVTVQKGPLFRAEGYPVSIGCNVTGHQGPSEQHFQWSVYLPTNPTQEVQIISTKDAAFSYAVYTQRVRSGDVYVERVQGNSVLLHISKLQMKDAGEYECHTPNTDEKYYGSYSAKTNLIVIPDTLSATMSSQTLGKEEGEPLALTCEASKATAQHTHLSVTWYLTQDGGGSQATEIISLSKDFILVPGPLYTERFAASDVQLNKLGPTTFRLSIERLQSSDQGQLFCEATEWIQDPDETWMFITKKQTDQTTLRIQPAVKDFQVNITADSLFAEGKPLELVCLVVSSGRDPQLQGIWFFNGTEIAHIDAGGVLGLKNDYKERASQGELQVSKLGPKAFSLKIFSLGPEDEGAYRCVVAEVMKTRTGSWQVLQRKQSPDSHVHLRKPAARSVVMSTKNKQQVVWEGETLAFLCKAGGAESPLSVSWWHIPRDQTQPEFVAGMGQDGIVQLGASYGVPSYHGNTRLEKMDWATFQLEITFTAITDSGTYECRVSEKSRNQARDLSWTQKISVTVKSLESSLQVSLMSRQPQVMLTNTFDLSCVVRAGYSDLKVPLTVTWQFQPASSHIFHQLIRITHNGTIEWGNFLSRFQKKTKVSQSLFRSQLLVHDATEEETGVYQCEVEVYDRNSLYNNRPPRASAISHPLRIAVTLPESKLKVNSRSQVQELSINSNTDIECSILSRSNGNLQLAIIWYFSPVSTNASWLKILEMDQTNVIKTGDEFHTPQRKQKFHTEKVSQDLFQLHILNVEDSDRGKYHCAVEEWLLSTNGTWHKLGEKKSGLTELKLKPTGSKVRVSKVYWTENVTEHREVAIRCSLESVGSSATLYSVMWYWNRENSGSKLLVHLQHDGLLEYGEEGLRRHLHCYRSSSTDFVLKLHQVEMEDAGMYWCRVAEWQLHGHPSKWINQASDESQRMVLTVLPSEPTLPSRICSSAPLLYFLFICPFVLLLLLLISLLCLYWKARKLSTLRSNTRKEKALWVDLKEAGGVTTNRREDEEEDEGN
The assay can be described thus: FACS, culture supernatant on 293F-CD101 cells. Here is the method: Expression vectors for humanized antibodies carrying a designed heavy-chain or light-chain sequence were transiently transfected into 293F cells in pairs according to a standard protocol. Specifically, PBS was added at 2 mL/well to a 6-well plate, then 2 μg of a pcDNA3.4-IgG1 expression vector and 2 μg of a pcDNA3.4-IgKc expression vector were added, and thorough mixing was conducted by pipetting up and down. 12 μL of a LVTransm transfection reagent was added, then thorough mixing was immediately conducted by pipetting up and down, and the plate was allowed to stand at room temperature for 10 min. A DNA/LVTransm complex was added to 3 mL of 293F cells, and gentle shaking was conducted for thorough mixing. The cells were further cultured for 3 d in a 37° C. and 5% CO₂ incubator, and a culture supernatant was collected through centrifugation and tested by FACS.
FACS was conducted according to a standard protocol. […] Cells were washed with PBS 3 times. 100 μL of a secondary antibody (PE-anti-human IgG, which was diluted 1:200) was added, thorough mixing was conducted, and incubation was conducted for 45 min at room temperature in the dark. Cells were washed with PBS 3 times and then resuspended with 500 μL of PBS. A fluorescence intensity was read by a multimode microplate reader for FACS analysis. […] In the follow-up experiments, the four combinations of VH1-VL1, VH1-VL2, VH3-VL1, and VH3-VL2 (hu.CA1 to hu.CA4) were taken as examples for antibody purification and affinity testing.
Regarding B1, the binding result is “binds”.

For B2, the binding result is given as “binds”.

As for B3, the binding result was “binds”.

For the molecule B4, the binding result was “binds”.

For B5, the binding result is on record as “binds”.

Regarding B6, the binding result is “binds”.

Take B7: the binding result is reported as “binds”.

For B8, the binding result is listed as “binds”.

A further assay addresses T1, CD101. The assay can be described thus: cell-based or functional assay.
With B9, the “inhibitory effect for CD101 (flow cytometry of CD101 on Jurkat cells overexpressing CD101, 3 h, 1,600 ng/mL)” value was roughly 80% and the “inhibitory effect for CD101 (flow cytometry of CD101 on Jurkat cells overexpressing CD101, 8 h, 1,600 ng/mL)” value was no less than 90%.

Consider B10, for which the “inhibitory effect for CD101 (flow cytometry of CD101 on Jurkat cells overexpressing CD101, 3 h, 1,600 ng/mL)” value is roughly 80% and the “inhibitory effect for CD101 (flow cytometry of CD101 on Jurkat cells overexpressing CD101, 8 h, 1,600 ng/mL)” value is no less than 90%.

On to B11, for which the “inhibitory effect for CD101 (flow cytometry of CD101 on Jurkat cells overexpressing CD101, 3 h, 1,600 ng/mL)” value was roughly 80% and the “inhibitory effect for CD101 (flow cytometry of CD101 on Jurkat cells overexpressing CD101, 8 h, 1,600 ng/mL)” value was no less than 90%.

On to B12, for which the “inhibitory effect for CD101 (flow cytometry of CD101 on Jurkat cells overexpressing CD101, 3 h, 1,600 ng/mL)” value is roughly 80% and the “inhibitory effect for CD101 (flow cytometry of CD101 on Jurkat cells overexpressing CD101, 8 h, 1,600 ng/mL)” value was no less than 90%.

As to B13, the “inhibitory effect for CD101 (flow cytometry of CD101 on Jurkat cells overexpressing CD101, 3 h, 1,600 ng/mL)” value is roughly 80% and the “inhibitory effect for CD101 (flow cytometry of CD101 on Jurkat cells overexpressing CD101, 8 h, 1,600 ng/mL)” value was no less than 90%.

The next assay concerns the target T2, CD101 (human, UniProt Q93033 21-1021).
T2 chain: T1 sequence (looked up)
The assay can be described thus: FACS. Background: Flow cytometry measures light scatter and fluorescence of single cells or particles in a stream.
By EC50 is commonly meant the concentration at which the effect is half-maximal. A higher EC50 goes with a need for much substance. Take B9: the EC50 came to 8.49 µg/mL.

The molecule B10 yielded an EC50 of 7.9 µg/mL.

B11 showed an EC50 of 9.1 µg/mL. This EC50 and that of the molecule before are within 1.5-fold of each other.

Consider B12, for which it took 11 µg/mL to reach a half-maximal effect (EC50).

As for B13, the EC50 is 6.62 µg/mL.
